Data on two molecules can be found in patent publication US20190000971A1 (RESEARCH INSTITUTE AT NATIONWIDE CHILDREN S HOSPITAL, published 2019).

For assay [1], the target named is T1, Haemophilus influenzae IhfB, modified B4 (mB4) fragment (Haemophilus influenzae).
T1 construct: Synthetic 20-mer peptide; also called IhfB frag. mB4
T1 peptide: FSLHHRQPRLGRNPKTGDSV
As to the kind of experiment: ELISA (FIG. 2B). (An ELISA detects its analyte on a solid surface through an enzyme-linked reagent.)

The target of assay [2] is T2, Haemophilus influenzae IhfA, A5 fragment (Haemophilus influenzae).
T2 construct: Synthetic 20-mer peptide; also called IhfA frag; A5
T2 peptide: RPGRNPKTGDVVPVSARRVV
As to the kind of experiment: ELISA, peptide-coated plate (FIG. 2B/2C).

B1: monoclonal antibody mIhfB4 NTHI (hybridoma mIhfB4 NTHI 12E6.F8.D12.D5, ATCC PTA-122335) (antibody, V domains shown)
VH: EVQLQESGAELVRSGASVKLSCTASGFNIKDYYMHWVKQRPEQGLEWIGWIDPENDDTEYVPKFQGKASMTADTSSNTAYLQLSSLTSEDTAVYYCTELGAYWGQGTLV
VL: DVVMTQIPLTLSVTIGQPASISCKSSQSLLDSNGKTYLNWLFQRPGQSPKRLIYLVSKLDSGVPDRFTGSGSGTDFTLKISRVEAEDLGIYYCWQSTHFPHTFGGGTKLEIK
notes: 17; also called Ihf mB4; mB4
B1: the binding result in assay [1] was “binds”.

B2: monoclonal antibody IhfA5 NTHI (hybridoma IhfA5 NTHI 14G8.F5.G6, ATCC PTA-122334) (antibody, V domains shown)
VH: EVQLQESGPGLVTPSQSLSMTCTVSGFSLTSYSVHWVRQPPGKSLEWLGVIWAGGSTNYNSALMSRLSISKDNSKSQVFLKMDSLQTDDTAIYYCAREDSWGQGTSVTVSS
VL: DIVMTQSQKFMSTSVGDRVSVTCKASQNVGTNVAWYQQKPGQSPKALIYSASYRYSGVPDRFTGSGSGTDFTLTISNVQSEDLAEYFCQQYNSYPTFGGGTKLEIK
notes: 13; also called mAb IhfA5NTHI
As to B2, in assay [2], the binding result is “binds”.
